Common to all, as to experiment: SPR
Test [1] has as its target T1, Ad1 hexon, on wild-type human adenovirus type 1 virions (human adenovirus type 1).
T1 chain: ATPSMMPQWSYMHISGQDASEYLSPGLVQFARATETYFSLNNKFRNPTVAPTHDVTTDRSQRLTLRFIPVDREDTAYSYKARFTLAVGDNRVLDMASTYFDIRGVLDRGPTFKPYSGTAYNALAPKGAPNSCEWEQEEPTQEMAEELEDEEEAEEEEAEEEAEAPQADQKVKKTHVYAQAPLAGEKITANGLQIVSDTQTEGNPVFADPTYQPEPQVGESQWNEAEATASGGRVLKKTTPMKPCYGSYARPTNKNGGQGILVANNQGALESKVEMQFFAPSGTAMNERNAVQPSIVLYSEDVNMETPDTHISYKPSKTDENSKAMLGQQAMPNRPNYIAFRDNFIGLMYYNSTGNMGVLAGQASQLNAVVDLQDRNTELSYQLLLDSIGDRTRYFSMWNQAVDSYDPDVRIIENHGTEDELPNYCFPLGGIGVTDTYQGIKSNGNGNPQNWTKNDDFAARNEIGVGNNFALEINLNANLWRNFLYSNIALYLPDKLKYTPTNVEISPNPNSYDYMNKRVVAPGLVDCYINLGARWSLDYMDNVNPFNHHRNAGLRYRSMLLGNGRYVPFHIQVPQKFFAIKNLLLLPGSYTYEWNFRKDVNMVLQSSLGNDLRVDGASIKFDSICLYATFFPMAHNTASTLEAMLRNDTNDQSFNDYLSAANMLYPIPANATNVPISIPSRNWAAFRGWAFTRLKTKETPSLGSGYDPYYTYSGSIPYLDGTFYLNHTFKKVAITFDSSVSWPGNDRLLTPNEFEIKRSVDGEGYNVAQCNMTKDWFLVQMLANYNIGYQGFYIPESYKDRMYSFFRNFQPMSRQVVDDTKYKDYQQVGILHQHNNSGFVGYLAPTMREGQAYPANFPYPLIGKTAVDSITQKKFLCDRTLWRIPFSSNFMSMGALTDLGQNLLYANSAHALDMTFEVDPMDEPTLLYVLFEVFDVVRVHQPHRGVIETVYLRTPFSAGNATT

For test [2], the target named is T2, Ad6 hexon, on wild-type human adenovirus type 6 virions (human adenovirus type 6).
T2 chain: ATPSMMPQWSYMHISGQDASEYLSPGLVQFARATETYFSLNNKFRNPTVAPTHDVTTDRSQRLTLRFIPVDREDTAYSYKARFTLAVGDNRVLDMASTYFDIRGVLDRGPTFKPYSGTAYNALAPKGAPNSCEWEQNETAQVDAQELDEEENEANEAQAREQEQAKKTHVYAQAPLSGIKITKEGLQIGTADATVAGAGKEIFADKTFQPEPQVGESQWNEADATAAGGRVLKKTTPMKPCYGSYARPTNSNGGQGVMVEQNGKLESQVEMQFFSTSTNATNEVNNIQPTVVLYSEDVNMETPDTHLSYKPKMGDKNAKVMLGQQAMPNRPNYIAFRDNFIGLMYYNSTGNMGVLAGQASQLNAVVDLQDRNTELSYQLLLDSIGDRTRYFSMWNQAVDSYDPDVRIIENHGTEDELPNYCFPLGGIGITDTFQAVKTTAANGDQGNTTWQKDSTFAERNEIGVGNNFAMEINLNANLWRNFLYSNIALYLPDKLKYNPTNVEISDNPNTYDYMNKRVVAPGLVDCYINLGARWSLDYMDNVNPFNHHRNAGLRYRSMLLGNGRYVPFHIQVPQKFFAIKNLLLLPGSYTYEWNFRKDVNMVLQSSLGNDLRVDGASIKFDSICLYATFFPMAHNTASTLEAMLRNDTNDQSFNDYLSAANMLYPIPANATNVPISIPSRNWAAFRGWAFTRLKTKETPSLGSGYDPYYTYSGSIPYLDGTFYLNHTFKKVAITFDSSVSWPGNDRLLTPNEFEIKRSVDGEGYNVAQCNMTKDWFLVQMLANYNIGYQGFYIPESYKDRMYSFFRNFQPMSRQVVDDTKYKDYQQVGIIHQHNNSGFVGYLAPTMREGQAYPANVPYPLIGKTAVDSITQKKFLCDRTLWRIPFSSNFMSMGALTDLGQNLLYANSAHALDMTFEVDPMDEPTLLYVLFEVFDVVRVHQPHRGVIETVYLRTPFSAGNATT

In test [3] the target is T3, Ad2 hexon, on wild-type human adenovirus type 2 virions (human adenovirus type 2, UniProt P03277 1-968).
T3 chain: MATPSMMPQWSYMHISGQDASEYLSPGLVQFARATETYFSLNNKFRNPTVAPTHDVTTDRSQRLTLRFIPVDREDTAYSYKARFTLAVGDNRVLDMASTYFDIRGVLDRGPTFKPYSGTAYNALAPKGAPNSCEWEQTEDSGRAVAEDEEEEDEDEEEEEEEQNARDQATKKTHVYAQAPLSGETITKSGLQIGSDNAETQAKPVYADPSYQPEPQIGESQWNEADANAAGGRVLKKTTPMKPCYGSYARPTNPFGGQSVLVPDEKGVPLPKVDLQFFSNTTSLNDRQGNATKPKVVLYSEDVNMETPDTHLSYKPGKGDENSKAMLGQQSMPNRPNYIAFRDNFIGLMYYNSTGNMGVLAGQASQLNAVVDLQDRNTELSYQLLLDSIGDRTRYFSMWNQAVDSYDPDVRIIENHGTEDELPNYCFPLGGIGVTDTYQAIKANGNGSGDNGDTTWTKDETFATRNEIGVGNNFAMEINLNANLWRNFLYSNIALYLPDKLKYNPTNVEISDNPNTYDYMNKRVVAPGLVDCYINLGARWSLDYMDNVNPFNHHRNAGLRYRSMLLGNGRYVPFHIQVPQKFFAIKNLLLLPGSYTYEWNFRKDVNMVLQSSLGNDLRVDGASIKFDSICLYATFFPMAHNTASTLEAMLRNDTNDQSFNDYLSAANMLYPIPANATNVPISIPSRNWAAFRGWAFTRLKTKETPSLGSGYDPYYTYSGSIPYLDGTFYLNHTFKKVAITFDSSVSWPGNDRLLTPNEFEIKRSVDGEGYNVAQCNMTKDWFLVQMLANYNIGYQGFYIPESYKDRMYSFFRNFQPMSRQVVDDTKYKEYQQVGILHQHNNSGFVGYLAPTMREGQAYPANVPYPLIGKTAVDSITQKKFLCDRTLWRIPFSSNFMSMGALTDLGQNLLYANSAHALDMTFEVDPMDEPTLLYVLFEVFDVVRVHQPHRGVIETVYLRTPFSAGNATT

From PMC9536601 (2022) come the findings set out here.

B1: mouse coagulation factor X (natural protein)
chain 1: ANSFFEEFKKGNLERECMEEICSYEEVREIFEDDEKTKEYWTKYKDGDQCESSPCQNQGACRDGIGGYTCTCSEGFEGKNCELFVRKLCRLDNGDCDQFCREEQNSVVCSCASGYFLGNDGKSCISTAPFPCGKITTGRR
chain 2: VALNTSDSELDLEDALLDEDFLSPTENPIELLNLNETQPERSSDDLVRIVGGRECKDGECPWQALLINEDNEGFCGGTILNEFYILTAAHCLHQARRFKVRVGDRNTEKEEGNEMVHEVDVVIKHNKFQRDTYDYDIAVLRLKTPITFRMNVAPACLPQKDWAESTLMTQKTGIVSGFGRTHEKGRQSNILKMLEVPYVDRNTCKLSTSFSITQNMFCAGYEAKLEDACQGDSGGPHVTRFKNTYYVTGIVSWGEGCARKGKYGIYTKVTTFLKWIDRSMKARVGPTAETPRTAGPPN
modifications: gamma-carboxylated glutamate residues in the Gla domain
What is called Kd is the equilibrium constant for the complex coming apart. A high value points to a looser complex. Take B1: the dissociation constant (Kd) was determined as 0.31 nM in test [1], 0.42 nM in test [2] and 0.76 nM in test [3].
